Measured values as given in patent US5223421A, “Identification of methionine Nα-acetyltransferase” (The General Hospital Corporation, priority 1990, dated 1993).

Molecular target: T1, yeast methionine acetyltransferase (M-N^α AT) (Saccharomyces cerevisiae, UniProt Q06504)
T1 construct: a crude yeast homogenate from the aaa1 mutant strain; endogenous in cells; host or cells: Saccharomyces cerevisiae strain T3A-a (aaa1), crude lysate
T1 sequence (Q06504 1-195): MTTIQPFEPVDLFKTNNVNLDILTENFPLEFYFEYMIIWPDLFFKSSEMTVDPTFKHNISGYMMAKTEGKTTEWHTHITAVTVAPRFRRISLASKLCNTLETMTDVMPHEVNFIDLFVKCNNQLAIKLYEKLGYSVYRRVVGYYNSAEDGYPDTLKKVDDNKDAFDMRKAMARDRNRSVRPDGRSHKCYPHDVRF
T1 sequence (Q12387 2-796 partner limits assumed): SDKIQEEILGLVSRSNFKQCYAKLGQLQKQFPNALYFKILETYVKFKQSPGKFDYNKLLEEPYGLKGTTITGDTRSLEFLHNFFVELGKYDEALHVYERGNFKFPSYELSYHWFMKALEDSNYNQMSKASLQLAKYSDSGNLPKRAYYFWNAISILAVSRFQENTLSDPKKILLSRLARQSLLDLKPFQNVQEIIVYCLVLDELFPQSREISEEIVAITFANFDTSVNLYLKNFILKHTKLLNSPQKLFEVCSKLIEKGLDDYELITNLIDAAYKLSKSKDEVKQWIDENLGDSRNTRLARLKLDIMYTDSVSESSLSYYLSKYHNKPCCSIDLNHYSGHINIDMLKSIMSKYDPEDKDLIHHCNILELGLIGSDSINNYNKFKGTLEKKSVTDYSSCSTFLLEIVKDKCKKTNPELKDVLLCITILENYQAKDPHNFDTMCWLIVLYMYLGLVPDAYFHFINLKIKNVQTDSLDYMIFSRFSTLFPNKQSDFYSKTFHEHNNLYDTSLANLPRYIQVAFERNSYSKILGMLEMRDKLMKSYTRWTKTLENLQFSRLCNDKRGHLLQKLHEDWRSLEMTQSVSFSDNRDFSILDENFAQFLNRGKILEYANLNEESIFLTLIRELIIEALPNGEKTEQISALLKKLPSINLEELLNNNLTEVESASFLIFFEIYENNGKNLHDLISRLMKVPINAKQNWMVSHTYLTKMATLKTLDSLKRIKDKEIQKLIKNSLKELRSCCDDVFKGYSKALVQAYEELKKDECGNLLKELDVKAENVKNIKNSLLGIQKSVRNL
Assay: Relative activity of yeast methionine acetyltransferase for N^α -acetylation of synthetic peptides (PAI analogues)
Type: biochemical
Parameters: tested at 50 µM
Conditions: Table 5; mean ± SD (N=3-5); normalized to yeast proteinase A inhibitor 3
Method: N^α -acetyltransferase activity was determined as previously described [Lee et al., J. Biol. Chem. 263:14948-14955 (1988)]. Aliquots of the lysate or chromatographic fractions were added to 1.5 ml Eppendorf tubes containing a reaction mixture of 50 mM HEPES, pH 7.4, 150 mM KCl, 1 mM DTT, 25 μM [^3 H] acetyl coenzyme A (0.5 μCi) and 50 μM synthetic peptide with an adjusted final volume of 100 μl. The assay mixture was incubated at 30° C. for 30 min. The reaction was stopped by adding 17 μl of 0.5M acetic acid and chilled in an ice bath. The reaction samples were filtered through SP membrane discs (Cuno) (previously pre-swollen in 0.5M acetic acid), and then washed three times with 1 ml of 0.5M acetic acid on a Millipore 1225 sampling manifold. The partially dried membranes were placed in scintillation cocktail and counted with a Beckman LS 3801 scintillation counter. One unit of activity was defined as the amount of enzyme able to transfer 1 pmol of [^3 H] acetyl group from [^3 H] acetyl coenzyme A to synthetic peptide per min under standard enzyme assay conditions defined above.
Proteinase A inhibitor 3 (PAI) (Tsunasawa et al., Methods Enzymol. 106:165-170 (1984); Wold, F., Trends Biochem Sci. 9:256-267 (1984); Driessen et al., CRC Crit. Rev. Biochem 18:281-325 (1985); Mullen et al., EMBO J. 8:2067-2075 (1989); Lee et al., J. Bacteriol. 171:5795-5802 (1989); Hershko et al., Proc. Natl. Acad. Sci. USA 81:7021-7025 (1984); Bachmair et al., Science 234:179-186 (1986); Arfin et al., Biochemistry 27:7979-7984 (1988); Persson et al., Eur. J. Biochem. 152:523-527 (1985); Huang al., Biochemistry 26:8242-8246 (1987); Lee et al., J. Biol. Chem. 263:14948-14955 (1988); Kamitani et al., J. Biol. Chem. 264:13188-13193 (1989)) is the only known yeast protein which is acetylated at its NH2 -terminal methionine residue (Biedermann et al., Carlsberg Res. Commun. 45:225-235 (1980)). […] The numbers in parentheses refer to the residue numbers, and the letters in parentheses refer to the amino acid sequence Abbreviations are as in FIG. 1. Data are reported as mean activity ±SD (N=3-5) and are normalized to the activity of the homogenate towards yeast proteinase A inhibitor 3. The sequence of this protein is:
Thus, by using PAI, its analogues and other peptides, the structural features of M-N^α AT substrates were studied. […] Only three of nineteen analogues were acetylated, although the efficiency of their acetylation varied from 9-55% (Asp>Glu>Gln). Although it was shown previously that iso-cytochrome c variant proteins (Met-Ile-Arg - - -, Met-Ile-Lys - - -, Met-Met-Asn - - -) can be N^α -acetylated in vivo (Tsunasawa et al., J. Biol. Chem. 260:5382-5391 (1985)), synthetic peptides mimicking the NH2 -terminal 24 amino acid residues of these iso-cytochrome c variants were not acetylated by the yeast M-N^αAT.

Substance	Activity (%)
[Asp2 ]PROTEINASE A INHIBITOR 3 (1-24) (Yeast): synthetic PAI analogue with substitution at penultimate position (Asp) (MDTDQQKVSEIFQSSKEKLQGDAK; UniProt P01094 1-24, looked up, variant N2D)	55 ± 5
[Gln2 ]PROTEINASE A INHIBITOR 3 (1-24) (Yeast): synthetic PAI analogue with substitution at penultimate position (Gln) (MQTDQQKVSEIFQSSKEKLQGDAK; UniProt P01094 1-24, looked up, variant N2Q)	9 ± 3
[Gly2 ]PROTEINASE A INHIBITOR 3 (1-24) (Yeast): synthetic PAI analogue with substitution at penultimate position (Gly) (MGTDQQKVSEIFQSSKEKLQGDAK; UniProt P01094 1-24, looked up, variant N2G)	0
[His2 ]PROTEINASE A INHIBITOR 3 (1-24) (Yeast): synthetic PAI analogue with substitution at penultimate position (His) (MHTDQQKVSEIFQSSKEKLQGDAK; UniProt P01094 1-24, looked up, variant N2H)	0
[Ile2 ]PROTEINASE A INHIBITOR 3 (1-24) (Yeast): synthetic PAI analogue with substitution at penultimate position (Ile) (MITDQQKVSEIFQSSKEKLQGDAK; UniProt P01094 1-24, looked up, variant N2I)	0
[Met2 ]PROTEINASE A INHIBITOR 3 (1-24) (Yeast): synthetic PAI analogue with substitution at penultimate position (Met) (MMTDQQKVSEIFQSSKEKLQGDAK; UniProt P01094 1-24, looked up, variant N2M)	0
[Phe2 ]PROTEINASE A INHIBITOR 3 (1-24) (Yeast): synthetic PAI analogue with substitution at penultimate position (Phe) (MFTDQQKVSEIFQSSKEKLQGDAK; UniProt P01094 1-24, looked up, variant N2F)	0
[Pro2 ]PROTEINASE A INHIBITOR 3 (1-24) (Yeast): synthetic PAI analogue with substitution at penultimate position (Pro) (MPTDQQKVSEIFQSSKEKLQGDAK; UniProt P01094 1-24, looked up, variant N2P)	0
[Trp2 ]PROTEINASE A INHIBITOR 3 (1-24) (Yeast): synthetic PAI analogue with substitution at penultimate position (Trp) (MWTDQQKVSEIFQSSKEKLQGDAK; UniProt P01094 1-24, looked up, variant N2W)	0
[Val2 ]PROTEINASE A INHIBITOR 3 (1-24) (Yeast): synthetic PAI analogue with substitution at penultimate position (Val) (MVTDQQKVSEIFQSSKEKLQGDAK; UniProt P01094 1-24, looked up, variant N2V)	0
